One block for each substance: values may come before it.
Columns and labels:
Experiment in all cases: cell-based or functional assay
[1] = target: H4 peptide of the H4 acetylation indicator, acetylated by CBP
[2] = target: H3 peptide (first 30 amino acids of H3) of the H3 methylation indicator, methylated by G9a
[3] = target: H3 peptide segment (first 30 amino acids of H3) of the phosphorylation indicator, phosphorylated by Msk-1

YFP/CFP emission ratio increase (FRET) on in vitro acetylation by CBP + acetyl-CoA [1]: 11%
Substance: bromodomain of the Drosophila transcription factor TAF250 in the H4 acetylation reporter

YFP/CFP emission ratio increase (FRET) on in vitro methylation by G9a + SAM [2]: 20%
Substance: chromodomain of HP1 in the H3 methylation indicator

YFP/CFP emission ratio increase (FRET) on in vitro phosphorylation by Msk-1 [3]: 25%
Substance: 14-3-3 domain of the histone 3 phosphorylation indicator
